Laboratory results published in the supplement of paper PMC9112550, “Optimization of the antimicrobial peptide Bac7 by deep mutational scanning” (BMC Biology, 2022).

System: Escherichia coli TOP10
Assay: shrunken log2 fold change of peptide-encoding DNA abundance (4.5 h post-induction vs induction); higher = less antimicrobial activity (less host growth inhibition)
Conditions: time post-induction: 4.5 h; library: site-saturation at positions 5, 18, 19, 20
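Note: peptides expressed intracellularly from a pBAD plasmid library in pooled LB shake-flask culture, induced with 0.3% L-arabinose, DNA abundance read by NGS, three biological replicates, DESeq2 with apeglm shrinkage.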

| Sequence | shrunken log2 fold change |
| --- | --- |
| RRIRGRPPRLPRPRPRPHQWPRP | 0.134 |
| RRIRGRPPRLPRPRPRPHVNPRP | 0.295 |
| RRIRLRPPRLPRPRPRPICKPRP | -0.28 |
| RRIRPRPPRLPRPRPRPSELPRP | 0.0666 |
| RRIRLRPPRLPRPRPRPKGHPRP | -0.0999 |
| RRIRMRPPRLPRPRPRPNCCPRP | -0.0306 |
| RRIRARPPRLPRPRPRPDFSPRP | 0.000254 |
| RRIRPRPPRLPRPRPRPMNTPRP | -0.0416 |
| RRIRARPPRLPRPRPRPAEDPRP | 1.19 |
| RRIRARPPRLPRPRPRPQDLPRP | -0.0381 |
| RRIRFRPPRLPRPRPRPIACPRP | -0.0937 |
| RRIRRRPPRLPRPRPRPAPRPRP | 0.996 |
| RRIRDRPPRLPRPRPRPSCEPRP | 0.042 |
| RRIRSRPPRLPRPRPRPHYSPRP | -0.596 |
| RRIRWRPPRLPRPRPRPAYIPRP | -0.0757 |
| RRIRTRPPRLPRPRPRPRAWPRP | 0.132 |
| RRIRCRPPRLPRPRPRPWRRPRP | 0.0523 |
| RRIRSRPPRLPRPRPRPSSSPRP | -0.353 |
| RRIRMRPPRLPRPRPRPLMEPRP | 1.68 |
| RRIRYRPPRLPRPRPRPSASPRP | -0.071 |
| RRIRKRPPRLPRPRPRPNFVPRP | 0.309 |
| RRIRFRPPRLPRPRPRPGHIPRP | -0.00306 |
| RRIRGRPPRLPRPRPRPMWVPRP | 0.168 |
| RRIRHRPPRLPRPRPRPCEIPRP | -0.171 |
| RRIRNRPPRLPRPRPRPMHAPRP | 0.0438 |

| Sequence | shrunken log2 fold change |
| --- | --- |
| RRIRQRPPRLPRPRPRPRSEPRP | 0.234 |
| RRIRGRPPRLPRPRPRPISHPRP | -0.0449 |
| RRIRSRPPRLPRPRPRPYASPRP | 0.0607 |
| RRIRSRPPRLPRPRPRPVQYPRP | -0.00908 |
| RRIRVRPPRLPRPRPRPDPLPRP | -0.231 |
| RRIRFRPPRLPRPRPRPIPCPRP | -0.256 |
| RRIRKRPPRLPRPRPRPIFLPRP | 0.0688 |
| RRIRCRPPRLPRPRPRPEQHPRP | 0.0913 |
| RRIRHRPPRLPRPRPRPTDMPRP | 0.151 |
| RRIRYRPPRLPRPRPRPSNLPRP | -0.729 |
| RRIRCRPPRLPRPRPRPNCDPRP | -0.233 |
| RRIRARPPRLPRPRPRPHGIPRP | 0.0225 |
| RRIRTRPPRLPRPRPRPFMFPRP | -0.586 |
| RRIRPRPPRLPRPRPRPTHRPRP | 0.223 |
| RRIRFRPPRLPRPRPRPHMLPRP | 0.798 |
| RRIRNRPPRLPRPRPRPHPEPRP | 0.00649 |
| RRIRDRPPRLPRPRPRPWRFPRP | -0.277 |
| RRIRNRPPRLPRPRPRPHPVPRP | -0.269 |
| RRIRIRPPRLPRPRPRPCTIPRP | -0.25 |
| RRIRCRPPRLPRPRPRPYKQPRP | -0.211 |
| RRIRKRPPRLPRPRPRPPFPPRP | 0.582 |
| RRIRWRPPRLPRPRPRPPEEPRP | 1.26 |
| RRIRRRPPRLPRPRPRPDIKPRP | -0.374 |
| RRIRFRPPRLPRPRPRPTMWPRP | 0.0084 |
| RRIRWRPPRLPRPRPRPRCMPRP | 0.204 |

| Sequence | shrunken log2 fold change |
| --- | --- |
| RRIRDRPPRLPRPRPRPFPPPRP | -0.113 |
| RRIRIRPPRLPRPRPRPTRMPRP | 0.0519 |
| RRIRIRPPRLPRPRPRPAVRPRP | 0.445 |
| RRIRSRPPRLPRPRPRPPHYPRP | 0.132 |
| RRIRPRPPRLPRPRPRPALRPRP | 0.545 |
| RRIRYRPPRLPRPRPRPQWEPRP | -0.0193 |
| RRIRSRPPRLPRPRPRPCYCPRP | -0.215 |
| RRIRFRPPRLPRPRPRPCYNPRP | -0.255 |
| RRIRTRPPRLPRPRPRPHWKPRP | 0.00556 |
| RRIRGRPPRLPRPRPRPYLTPRP | -0.0518 |
| RRIRWRPPRLPRPRPRPIDVPRP | -0.298 |
| RRIRKRPPRLPRPRPRPRNLPRP | 0.525 |
| RRIRNRPPRLPRPRPRPWAQPRP | -0.0776 |
| RRIRLRPPRLPRPRPRPWREPRP | -0.018 |
| RRIRYRPPRLPRPRPRPNNIPRP | -1.24 |
| RRIRVRPPRLPRPRPRPWSSPRP | -1.19 |
| RRIRIRPPRLPRPRPRPQDSPRP | -0.269 |
| RRIRVRPPRLPRPRPRPSEEPRP | 0.00143 |
| RRIRRRPPRLPRPRPRPPVSPRP | 0.332 |
| RRIRYRPPRLPRPRPRPQMPPRP | -0.205 |
| RRIRFRPPRLPRPRPRPKWAPRP | -0.075 |
| RRIRSRPPRLPRPRPRPMRLPRP | 0.0162 |
| RRIRIRPPRLPRPRPRPYEKPRP | -0.352 |
| RRIRSRPPRLPRPRPRPHGAPRP | 0.104 |
| RRIRLRPPRLPRPRPRPRYLPRP | -0.0102 |
